The target in data set [1] is wildtype Ku (KuWT), Mycobacterium tuberculosis (M. tuberculosis) (UniProt P9WKD9). Description: BLI; Octet RED96, 37°C, 1000 rpm; biotinylated Ku (25 ug/ml) loaded on streptavidin biosensors; LigD, LIG or POL as analyte (12.5 ug/ml), 300 s association, 300 s dissociation; 1x kinetics buffer (0.1% BSA, 0.02% Tween-20, 0.05% sodium azide in PBS); grouped global fit.
The target of data set [2] is Mycobacterium tuberculosis Kumin (extended C-terminus removed) (M. tuberculosis) (UniProt P9WKD9). Description: BLI; biotinylated Ku protein (25 ug/ml) loaded on streptavidin biosensors as ligand; 12.5 ug/ml LIG or POL as analyte; 37 C, 1000 rpm; 1x kinetics buffer (0.1% BSA, 0.02% Tween-20, 0.05% sodium azide in PBS); association 300 s, dissociation 300 s; grouped global fit; n = 4 technical replicates.

In data set [3] the target is Mycobacterium tuberculosis Kucore (entire C-terminus removed) (M. tuberculosis) (UniProt P9WKD9). Described as above.
Data set [4] deals with the molecule itself. Briefly: SEC-MALS; 50 uM protein; 50 mM HEPES pH 8.0, 1 mM EDTA, 200 mM NaCl; Superdex 200 Increase 10/300 GL.
Data set [5] has as its target T1, LigD (wildtype), Mycobacterium tuberculosis (M. tuberculosis, UniProt P9WNV3 1-759).
T1 construct: The His tag is TEV-cleavable; also called wildtype LigD
Briefly: BLI; Octet RED96, 37°C, 1000 rpm; biotinylated Ku (25 ug/ml) loaded on streptavidin biosensors; LigD, LIG or POL as analyte (12.5 ug/ml), 300 s association, 300 s dissociation; 1x kinetics buffer (0.1% BSA, 0.02% Tween-20, 0.05% sodium azide in PBS); grouped global fit. To be noted: both partners purified.

Data set [6] deals with the molecule itself. Briefly: SEC-MALS; 50 uM protein in 50 mM HEPES pH 8.0, 1 mM EDTA, 200 mM NaCl; Superdex 200 Increase 10/300 GL; MiniDAWN and Optilab.

T1 sequence (P9WNV3 whole entry): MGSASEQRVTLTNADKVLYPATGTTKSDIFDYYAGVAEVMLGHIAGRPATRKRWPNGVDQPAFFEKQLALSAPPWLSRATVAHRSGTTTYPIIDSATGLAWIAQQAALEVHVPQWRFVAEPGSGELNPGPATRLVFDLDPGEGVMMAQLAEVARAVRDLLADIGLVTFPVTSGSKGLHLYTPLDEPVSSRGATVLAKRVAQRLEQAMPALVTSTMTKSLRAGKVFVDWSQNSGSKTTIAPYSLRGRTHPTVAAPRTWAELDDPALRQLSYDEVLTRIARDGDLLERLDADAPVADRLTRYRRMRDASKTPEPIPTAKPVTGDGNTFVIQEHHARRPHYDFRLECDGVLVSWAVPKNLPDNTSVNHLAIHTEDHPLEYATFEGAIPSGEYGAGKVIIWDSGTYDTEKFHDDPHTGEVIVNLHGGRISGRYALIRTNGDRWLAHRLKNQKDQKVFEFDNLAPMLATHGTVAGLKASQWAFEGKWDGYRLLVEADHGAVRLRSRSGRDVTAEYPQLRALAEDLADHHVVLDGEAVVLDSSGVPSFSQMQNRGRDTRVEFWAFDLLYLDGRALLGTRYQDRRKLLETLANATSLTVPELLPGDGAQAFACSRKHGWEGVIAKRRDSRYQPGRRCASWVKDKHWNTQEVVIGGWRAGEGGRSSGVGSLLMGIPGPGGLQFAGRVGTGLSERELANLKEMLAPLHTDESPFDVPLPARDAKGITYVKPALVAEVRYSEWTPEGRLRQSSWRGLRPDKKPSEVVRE

Molecule “LigD polymerase domain (POL), Mycobacterium tuberculosis (domain or fragment)” yielded a Kd in data set [1] of 52.7 nM. In the case of “ligase domain of Mycobacterium tuberculosis LigD (domain or fragment)”, the Kd turned out to be 571 nM in data set [2] and 274 nM in data set [3]. Regarding “polymerase domain of Mycobacterium tuberculosis LigD (domain or fragment)”, the dissociation constant Kd was 774 nM in data set [2] and 291 nM in data set [3]. For the molecule “LigD ligase domain (LIG), Mycobacterium tuberculosis (domain or fragment)”, in data set [1], the dissociation constant (Kd) is 81.4 nM.

B1: Mycobacterium tuberculosis Ku L251A (natural protein)
chain: MRAIWTGSIAFGLVNVPVKVYSATADHDIRFHQVHAKDNGRIRYKRVCEACGEVVDYRDLARAYESGDGQMVAITDDDIASLPEERSREIEVLEFVPAADVDPMMFDRSYFLEPDSKSSKSYVLLAKTLAETDRMAIVHFTLRNKTRLAALRVKDFGKREVMMVHTLLWPDEIRDPDFPVLDQKVEIKPAELKMAGQVVDSMADDFNPDRYHDTYQEQLQELIDTKLEGGQAFTAEDQPRLLDEPEDVSDALAKLEASVKARSKANSNVPTPP
As to B1, the “stoichiometry N” value in data set [4] was determined as 2.

B2: Mycobacterium tuberculosis Ku R262A (natural protein)
chain: MRAIWTGSIAFGLVNVPVKVYSATADHDIRFHQVHAKDNGRIRYKRVCEACGEVVDYRDLARAYESGDGQMVAITDDDIASLPEERSREIEVLEFVPAADVDPMMFDRSYFLEPDSKSSKSYVLLAKTLAETDRMAIVHFTLRNKTRLAALRVKDFGKREVMMVHTLLWPDEIRDPDFPVLDQKVEIKPAELKMAGQVVDSMADDFNPDRYHDTYQEQLQELIDTKLEGGQAFTAEDQPRLLDEPEDVSDLLAKLEASVKAASKANSNVPTPP
Take B2: the “stoichiometry N” value in data set [4] stood at 2.

B3: Ku D247A (M. tuberculosis) (natural protein)
chain: MRAIWTGSIAFGLVNVPVKVYSATADHDIRFHQVHAKDNGRIRYKRVCEACGEVVDYRDLARAYESGDGQMVAITDDDIASLPEERSREIEVLEFVPAADVDPMMFDRSYFLEPDSKSSKSYVLLAKTLAETDRMAIVHFTLRNKTRLAALRVKDFGKREVMMVHTLLWPDEIRDPDFPVLDQKVEIKPAELKMAGQVVDSMADDFNPDRYHDTYQEQLQELIDTKLEGGQAFTAEDQPRLLDEPEAVSDLLAKLEASVKARSKANSNVPTPP
modifications: biotinylated with NHS-LC-Biotin for BLI only
Turning to B3, the dissociation constant Kd in data set [5] amounted to 189 nM. Further, in data set [6], the “stoichiometry N” value was 2.

B4: Ku L251A (M. tuberculosis) (natural protein)
chain: MRAIWTGSIAFGLVNVPVKVYSATADHDIRFHQVHAKDNGRIRYKRVCEACGEVVDYRDLARAYESGDGQMVAITDDDIASLPEERSREIEVLEFVPAADVDPMMFDRSYFLEPDSKSSKSYVLLAKTLAETDRMAIVHFTLRNKTRLAALRVKDFGKREVMMVHTLLWPDEIRDPDFPVLDQKVEIKPAELKMAGQVVDSMADDFNPDRYHDTYQEQLQELIDTKLEGGQAFTAEDQPRLLDEPEDVSDALAKLEASVKARSKANSNVPTPP
modifications: biotinylated with NHS-LC-Biotin for BLI only
In data set [5], B4 gave an equilibrium dissociation constant (Kd) of 134 nM. Besides, the “stoichiometry N” value in data set [6] amounted to 2.

B5: Ku S258A (M. tuberculosis) (natural protein)
chain: MRAIWTGSIAFGLVNVPVKVYSATADHDIRFHQVHAKDNGRIRYKRVCEACGEVVDYRDLARAYESGDGQMVAITDDDIASLPEERSREIEVLEFVPAADVDPMMFDRSYFLEPDSKSSKSYVLLAKTLAETDRMAIVHFTLRNKTRLAALRVKDFGKREVMMVHTLLWPDEIRDPDFPVLDQKVEIKPAELKMAGQVVDSMADDFNPDRYHDTYQEQLQELIDTKLEGGQAFTAEDQPRLLDEPEDVSDLLAKLEAAVKARSKANSNVPTPP
modifications: biotinylated with NHS-LC-Biotin for BLI only
Regarding B5, the affinity in data set [5], expressed as Kd, was 258 nM. Also, the “stoichiometry N” value in data set [6] worked out at 2.

B6: Ku R262A (M. tuberculosis) (natural protein)
chain: MRAIWTGSIAFGLVNVPVKVYSATADHDIRFHQVHAKDNGRIRYKRVCEACGEVVDYRDLARAYESGDGQMVAITDDDIASLPEERSREIEVLEFVPAADVDPMMFDRSYFLEPDSKSSKSYVLLAKTLAETDRMAIVHFTLRNKTRLAALRVKDFGKREVMMVHTLLWPDEIRDPDFPVLDQKVEIKPAELKMAGQVVDSMADDFNPDRYHDTYQEQLQELIDTKLEGGQAFTAEDQPRLLDEPEDVSDLLAKLEASVKAASKANSNVPTPP
modifications: biotinylated with NHS-LC-Biotin for BLI only
In data set [5], B6 had a dissociation constant Kd of 125 nM. The “stoichiometry N” value in data set [6] amounted to 2.

B7: Mycobacterium tuberculosis Ku S258A (natural protein)
chain: MRAIWTGSIAFGLVNVPVKVYSATADHDIRFHQVHAKDNGRIRYKRVCEACGEVVDYRDLARAYESGDGQMVAITDDDIASLPEERSREIEVLEFVPAADVDPMMFDRSYFLEPDSKSSKSYVLLAKTLAETDRMAIVHFTLRNKTRLAALRVKDFGKREVMMVHTLLWPDEIRDPDFPVLDQKVEIKPAELKMAGQVVDSMADDFNPDRYHDTYQEQLQELIDTKLEGGQAFTAEDQPRLLDEPEDVSDLLAKLEAAVKARSKANSNVPTPP
Regarding B7, the “stoichiometry N” value in data set [4] came to 2.

B8: Mycobacterium tuberculosis Ku D247A (natural protein)
chain: MRAIWTGSIAFGLVNVPVKVYSATADHDIRFHQVHAKDNGRIRYKRVCEACGEVVDYRDLARAYESGDGQMVAITDDDIASLPEERSREIEVLEFVPAADVDPMMFDRSYFLEPDSKSSKSYVLLAKTLAETDRMAIVHFTLRNKTRLAALRVKDFGKREVMMVHTLLWPDEIRDPDFPVLDQKVEIKPAELKMAGQVVDSMADDFNPDRYHDTYQEQLQELIDTKLEGGQAFTAEDQPRLLDEPEAVSDLLAKLEASVKARSKANSNVPTPP
notes: The theoretical MW of 33.7 kDa equals that of KuWT
As to B8, in data set [4], the “stoichiometry N” value came to 2.

B9: Ku D250A (M. tuberculosis) (natural protein)
chain: MRAIWTGSIAFGLVNVPVKVYSATADHDIRFHQVHAKDNGRIRYKRVCEACGEVVDYRDLARAYESGDGQMVAITDDDIASLPEERSREIEVLEFVPAADVDPMMFDRSYFLEPDSKSSKSYVLLAKTLAETDRMAIVHFTLRNKTRLAALRVKDFGKREVMMVHTLLWPDEIRDPDFPVLDQKVEIKPAELKMAGQVVDSMADDFNPDRYHDTYQEQLQELIDTKLEGGQAFTAEDQPRLLDEPEDVSALLAKLEASVKARSKANSNVPTPP
modifications: biotinylated with NHS-LC-Biotin for BLI only
B9 yielded a Kd in data set [5] of 219 nM. The “stoichiometry N” value in data set [6] is 2.

B10: wildtype Ku (KuWT), Mycobacterium tuberculosis (natural protein)
chain: MRAIWTGSIAFGLVNVPVKVYSATADHDIRFHQVHAKDNGRIRYKRVCEACGEVVDYRDLARAYESGDGQMVAITDDDIASLPEERSREIEVLEFVPAADVDPMMFDRSYFLEPDSKSSKSYVLLAKTLAETDRMAIVHFTLRNKTRLAALRVKDFGKREVMMVHTLLWPDEIRDPDFPVLDQKVEIKPAELKMAGQVVDSMADDFNPDRYHDTYQEQLQELIDTKLEGGQAFTAEDQPRLLDEPEDVSDLLAKLEASVKARSKANSNVPTPP
modifications: biotinylated at multiple sites with NHS-LC-Biotin for BLI only (sites listed in Supplementary Table S3)
notes: The His tag is TEV-cleavable; Homodimer by SEC-MALS
For B10, the Kd in data set [5] was 196 nM. In addition, the “stoichiometry N” value in data set [6] amounted to 2.

B11: Mycobacterium tuberculosis Ku D250A (natural protein)
chain: MRAIWTGSIAFGLVNVPVKVYSATADHDIRFHQVHAKDNGRIRYKRVCEACGEVVDYRDLARAYESGDGQMVAITDDDIASLPEERSREIEVLEFVPAADVDPMMFDRSYFLEPDSKSSKSYVLLAKTLAETDRMAIVHFTLRNKTRLAALRVKDFGKREVMMVHTLLWPDEIRDPDFPVLDQKVEIKPAELKMAGQVVDSMADDFNPDRYHDTYQEQLQELIDTKLEGGQAFTAEDQPRLLDEPEDVSALLAKLEASVKARSKANSNVPTPP
Regarding B11, in data set [4], the “stoichiometry N” value worked out at 2.

For the origin of these results see PMC9638933.
